Measurements: patent US20200079833A1 (AstraZeneca / MedImmune, published 2020)
Starred links: 1 amine or outer side, 2 acyl side, 3 side chain; linkers in the order of their positions; H or OH if unused. Non-standard residues stand in square brackets, D forms with d. Groups on a side chain read outwards from the residue. Primed or numbered codes have the meaning given here. No end group written: not given here. *: point of attachment. γGlu = O=C(O)[C@H](CCC(=O)[*:2])N[*:1]; Stearoyl = CCCCCCCCCCCCCCCCCC(=O)*; Palmitoyl = CCCCCCCCCCCCCCCC(=O)*; αMeF = C[C@](N)(Cc1ccccc1)C(=O)O; Myristoyl = CCCCCCCCCCCCCC(=O)*; αMeK = C[C@](N)(CCCCN)C(=O)O; Lauroyl = CCCCCCCCCCCC(=O)*; αMeS = C[C@](N)(CO)C(=O)O; PEG2′ = not defined here; Aib = CC(C)(N)C(=O)O

T1: glucose-dependent insulinotropic peptide (gastric inhibitory polypeptide) receptor (GIPR), primary cAMP assay … (human, UniProt P48546 22-466)
T1 sequence (looked up): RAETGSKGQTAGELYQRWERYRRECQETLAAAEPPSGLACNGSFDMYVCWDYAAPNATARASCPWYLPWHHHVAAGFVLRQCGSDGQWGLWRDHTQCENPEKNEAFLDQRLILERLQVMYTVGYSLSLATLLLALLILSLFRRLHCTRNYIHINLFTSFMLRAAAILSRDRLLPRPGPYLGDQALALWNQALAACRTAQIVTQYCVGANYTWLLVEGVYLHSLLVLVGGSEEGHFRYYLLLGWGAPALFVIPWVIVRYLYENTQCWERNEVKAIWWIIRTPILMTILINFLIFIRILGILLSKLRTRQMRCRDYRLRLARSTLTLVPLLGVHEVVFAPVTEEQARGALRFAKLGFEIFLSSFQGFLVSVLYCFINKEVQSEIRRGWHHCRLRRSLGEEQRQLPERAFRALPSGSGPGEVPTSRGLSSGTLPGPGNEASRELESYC

T2: GLP-1R in the INS1e assay (UniProt P32301 22-463, limits assumed)
T2 sequence (looked up): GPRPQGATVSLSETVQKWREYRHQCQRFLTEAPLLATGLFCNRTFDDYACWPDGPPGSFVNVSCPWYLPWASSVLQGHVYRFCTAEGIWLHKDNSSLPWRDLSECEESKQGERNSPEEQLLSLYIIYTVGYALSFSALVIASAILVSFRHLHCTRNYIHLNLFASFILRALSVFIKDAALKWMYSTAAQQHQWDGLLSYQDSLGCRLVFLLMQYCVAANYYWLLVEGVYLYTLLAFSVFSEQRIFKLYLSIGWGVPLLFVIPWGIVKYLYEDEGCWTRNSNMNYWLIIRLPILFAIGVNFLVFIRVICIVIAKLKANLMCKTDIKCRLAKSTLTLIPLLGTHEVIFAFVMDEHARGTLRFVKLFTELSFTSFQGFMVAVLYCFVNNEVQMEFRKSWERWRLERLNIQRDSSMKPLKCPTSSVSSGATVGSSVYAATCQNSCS

T3: glucose-dependent insulinotropic peptide (gastric inhibitory polypeptide) receptor (GIPR), primary cAMP assay (human, UniProt P48546 22-466)
T3 sequence (looked up): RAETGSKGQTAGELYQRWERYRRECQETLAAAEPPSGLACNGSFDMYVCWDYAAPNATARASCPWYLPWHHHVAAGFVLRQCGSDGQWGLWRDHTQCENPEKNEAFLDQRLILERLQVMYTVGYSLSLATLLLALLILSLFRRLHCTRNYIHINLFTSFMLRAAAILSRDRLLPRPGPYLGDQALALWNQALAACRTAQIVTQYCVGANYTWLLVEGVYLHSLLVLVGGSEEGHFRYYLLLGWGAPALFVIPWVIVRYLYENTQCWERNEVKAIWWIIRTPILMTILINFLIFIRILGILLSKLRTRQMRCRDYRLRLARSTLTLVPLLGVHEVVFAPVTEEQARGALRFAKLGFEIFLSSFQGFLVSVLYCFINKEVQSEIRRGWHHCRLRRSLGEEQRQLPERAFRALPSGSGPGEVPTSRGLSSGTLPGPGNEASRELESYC

T4: GLP-1R in the INS1e assay (UniProt P32301 22-463, limits assumed)
T4 sequence (looked up): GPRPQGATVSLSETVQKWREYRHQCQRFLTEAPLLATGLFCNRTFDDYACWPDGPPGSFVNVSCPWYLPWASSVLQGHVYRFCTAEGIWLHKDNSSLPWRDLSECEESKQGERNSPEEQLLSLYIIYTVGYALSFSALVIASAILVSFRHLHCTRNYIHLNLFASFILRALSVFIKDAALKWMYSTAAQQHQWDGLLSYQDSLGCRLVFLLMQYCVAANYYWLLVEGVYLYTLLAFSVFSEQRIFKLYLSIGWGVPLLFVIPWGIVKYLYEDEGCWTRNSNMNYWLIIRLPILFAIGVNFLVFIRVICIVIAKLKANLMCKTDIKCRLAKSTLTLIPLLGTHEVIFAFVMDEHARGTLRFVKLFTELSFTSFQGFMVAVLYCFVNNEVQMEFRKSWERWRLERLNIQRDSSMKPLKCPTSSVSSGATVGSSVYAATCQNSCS


Columns and labels:
Assay in all cases: cell-based or functional assay
[1] = target: GLP-1 receptor (GLP-1R), primary cAMP assay cell line (human, UniProt P43220 24-463)
[2] = target: T1, glucose-dependent insulinotropic …
[3] = target: glucagon receptor (GCGR), primary cAMP assay cell line (human, UniProt P47871 26-477)
Sequence of glucagon receptor (GCGR), primary cAMP assay cell line (P47871 26-477): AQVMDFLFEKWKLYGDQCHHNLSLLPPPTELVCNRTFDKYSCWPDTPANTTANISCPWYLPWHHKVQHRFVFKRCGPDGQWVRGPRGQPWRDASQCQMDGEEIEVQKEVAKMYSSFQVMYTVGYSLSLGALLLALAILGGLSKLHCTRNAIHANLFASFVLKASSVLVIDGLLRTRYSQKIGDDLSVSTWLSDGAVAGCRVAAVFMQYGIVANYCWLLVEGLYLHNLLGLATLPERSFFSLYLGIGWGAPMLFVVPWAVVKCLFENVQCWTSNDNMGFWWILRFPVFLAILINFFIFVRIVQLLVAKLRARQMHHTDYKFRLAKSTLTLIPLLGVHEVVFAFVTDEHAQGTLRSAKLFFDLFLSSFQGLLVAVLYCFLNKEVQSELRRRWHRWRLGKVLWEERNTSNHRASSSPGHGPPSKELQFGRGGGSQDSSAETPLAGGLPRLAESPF

[4] = target: T2, GLP-1R in the INS1e assay
[5] = target: T3, glucose-dependent insulinotropic …
[6] = target: GLP-1 receptor (GLP-1R), primary cAMP assay (human, UniProt P43220 24-463)
[7] = target: glucagon receptor (GCGR), primary cAMP assay (human, UniProt P47871 26-477)
Sequence of glucagon receptor (GCGR), primary cAMP assay (P47871 26-477): as above

[8] = target: T4, GLP-1R in the INS1e assay; remark: listed apart in the source

Row | cAMP Primary assay EC50, Mean pM GLP-1R [1] | cAMP Primary assay EC50, n1 [1] | cAMP Primary assay EC50, n2 [1] | cAMP Primary assay EC50, n1 [2] | cAMP Primary assay EC50, n2 [2] | cAMP Primary assay EC50, n1 [3] | cAMP Primary assay EC50, n2 [3] | cAMP INS1e assay EC50, Mean pM GLP-1R [4] | cAMP INS1e assay EC50, n1 [4] | cAMP INS1e assay EC50, n2 [4] | Primary assay EC50 (cAMP), n1 [5] | Primary assay EC50 (cAMP), n2 [5] | Primary assay EC50 (cAMP) Mean [6] | Primary assay EC50 (cAMP), n1 [6] | Primary assay EC50 (cAMP), n2 [6] | Primary assay EC50 (cAMP), n1 [7] | Primary assay EC50 (cAMP), n2 [7] | INS1e assay EC50 (cAMP) Mean [8] | INS1e assay EC50 (cAMP) n1 [8] | INS1e assay EC50 (cAMP) n2 [8] | Binder
1 | 55.4 pM | 49.3 pM | 61.5 pM | 19.8 nM | 19.8 nM | 19.8 nM | 19.8 nM | 8920 pM | 9.92 nM | 7.91 nM | – | – | – | – | – | – | – | – | – | – | H[Aib]EGS[αMeF]TSDV[αMeS]SYK([PEG2′-PEG2′-γGlu-Lauroyl])EK([PEG2′-PEG2′-γGlu-Lauroyl])EAA[αMeK]EFIAK([PEG2′-PEG2′-γGlu-Lauroyl])VVEGG-NH2 [SEQ ID NO: 467]
2 | 30.3 pM | 25.4 pM | 35.1 pM | 20.2 nM | 20.2 nM | 20.2 nM | 20.2 nM | 4020 pM | 4.46 nM | 3.57 nM | – | – | – | – | – | – | – | – | – | – | H[Aib]EGS[αMeF]TSDV[αMeS]SK([PEG2′-PEG2′-γGlu-Lauroyl])LEGK([PEG2′-PEG2′-γGlu-Lauroyl])AA[αMeK]EFIAK([PEG2′-PEG2′-γGlu-Lauroyl])VVEGG-NH2 [SEQ ID NO: 464]
3 | 87.4 pM | 54.8 pM | 120 pM | 19.8 nM | 19.8 nM | 19.8 nM | 19.8 nM | 4910 pM | 6.74 nM | 3.08 nM | – | – | – | – | – | – | – | – | – | – | H[Aib]EGS[αMeF]TSDK([PEG2′-PEG2′-γGlu-Lauroyl])SSYLEK([PEG2′-PEG2′-γGlu-Lauroyl])EAA[αMeK]EFIAK([PEG2′-PEG2′-γGlu-Lauroyl])VVEGG-NH2 [SEQ ID NO: 455]
4 | 43.7 pM | 22.1 pM | 65.2 pM | 19.7 nM | 19.7 nM | 19.7 nM | 19.7 nM | 5540 pM | 4.1 nM | 6.99 nM | – | – | – | – | – | – | – | – | – | – | H[Aib]EGS[αMeF]TSDV[αMeS]SYK([PEG2′-PEG2′-γGlu-Lauroyl])EGEAA[αMeK]K([PEG2′-PEG2′-γGlu-Lauroyl])FIK([PEG2′-PEG2′-γGlu-Lauroyl])FVVEGG-NH2 [SEQ ID NO: 454]
5 | 45.4 pM | 41.8 pM | 49 pM | 19.8 nM | 19.8 nM | 19.8 nM | 19.8 nM | 4900 pM | 6.9 nM | 2.89 nM | – | – | – | – | – | – | – | – | – | – | H[Aib]EGS[αMeF]TSDV[αMeS]SYK([PEG2′-PEG2′-γGlu-Lauroyl])EGEK([PEG2′-PEG2′-γGlu-Lauroyl])A[αMeK]EFIAK([PEG2′-PEG2′-γGlu-Lauroyl])VVEGG-NH2 [SEQ ID NO: 469]
6 | – | – | – | – | – | – | – | – | – | – | 21.5 nM | 21.5 nM | 36.1 pM | 39.5 pM | 32.6 pM | 21.5 nM | 21.5 nM | 216 pM | 183 pM | 249 pM | H[Aib]EGS[αMeF]TSDV[αMeS]SK([PEG2′-PEG2′-γGlu-Palmitoyl])LEGEAA[αMeK]E[αMeF]IAK([PEG2′-PEG2′-γGlu-Palmitoyl])VVEGG-NH2 [SEQ ID NO: 409]
7 | – | – | – | – | – | – | – | – | – | – | 21.5 nM | 21.5 nM | 187 pM | 248 pM | 126 pM | 21.5 nM | 21.5 nM | 780 pM | 698 pM | 862 pM | H[Aib]EGS[αMeF]TSDV[αMeS]SK([PEG2′-PEG2′-γGlu-Stearoyl])LEGEAA[αMeK]E[αMeF]IAK([PEG2′-PEG2′-γGlu-Stearoyl])VVEGG-NH2 [SEQ ID NO: 410]
8 | 49 pM | 28 pM | 70 pM | 19.9 nM | 19.9 nM | 19.9 nM | 19.9 nM | 6810 pM | 6.38 nM | 7.24 nM | – | – | – | – | – | – | – | – | – | – | H[Aib]EGS[αMeF]TSDV[αMeS]SK([PEG2′-PEG2′-γGlu-Lauroyl])LEGEAA[αMeK]K([PEG2′-PEG2′-γGlu-Lauroyl])FIK([PEG2′-PEG2′-γGlu-Lauroyl])FVVEGG-NH2 [SEQ ID NO: 450]
9 | 41.4 pM | 36.3 pM | 46.4 pM | 20 nM | 20 nM | 20 nM | 20 nM | 3370 pM | 3.07 nM | 3.67 nM | – | – | – | – | – | – | – | – | – | – | H[Aib]EGS[αMeF]TSDK([PEG2′-PEG2′-γGlu-Lauroyl])SSYLEGEAA[αMeK]K([PEG2′-PEG2′-γGlu-Lauroyl])FIAK([PEG2′-PEG2′-γGlu-Lauroyl])VVEGG-NH2 [SEQ ID NO: 458]
10 | 47 pM | 37.6 pM | 56.4 pM | 20 nM | 20 nM | 20 nM | 20 nM | 4560 pM | 5.4 nM | 3.73 nM | – | – | – | – | – | – | – | – | – | – | H[Aib]EGS[αMeF]TSDVSK([PEG2′-PEG2′-γGlu-Lauroyl])YLEGEAA[αMeK]K([PEG2′-PEG2′-γGlu-Lauroyl])FIAK([PEG2′-PEG2′-γGlu-Lauroyl])VVEGG-NH2 [SEQ ID NO: 462]
11 | – | – | – | – | – | – | – | – | – | – | 21.5 nM | 21.5 nM | 8.9 pM | 9.96 pM | 7.89 pM | 21.5 nM | 21.5 nM | 412 pM | 376 pM | 448 pM | H[Aib]EGS[αMeF]TSDV[αMeS]SK([PEG2′-PEG2′-γGlu-Myristoyl])LEGEAA[αMeK]E[αMeF]IAK([PEG2′-PEG2′-γGlu-Myristoyl])VVEGG-NH2 [SEQ ID NO: 408]
12 | 22.4 pM | 17.2 pM | 27.5 pM | 20.2 nM | 20.2 nM | 20.2 nM | 20.2 nM | 3200 pM | 3.86 nM | 2.55 nM | – | – | – | – | – | – | – | – | – | – | H[Aib]EGS[αMeF]TSDV[αMeS]SK([PEG2′-PEG2′-γGlu-Lauroyl])LEGEAA[αMeK]K([PEG2′-PEG2′-γGlu-Lauroyl])FIAK([PEG2′-PEG2′-γGlu-Lauroyl])VVEGG-NH2 [SEQ ID NO: 466]
